Key:
[1] = molecular target: fusion protein in which the extracellular domain of Cynomolgus monkey GITR is fused with the domain of mouse IgG1-Fc (Cynomolgus monkey); assay: ELISA, cynoGITR-muFc coated at 5 ug/ml, anti-human IgG-HRP (FIG. 7)
[2] = molecular target: fusion protein in which the extracellular domain of Cynomolgus monkey GITR is fused with the domain of mouse IgG1-Fc (Cynomolgus monkey); assay: ELISA, cynoGITR-muFc coated at 5 ug/ml, anti-human IgG-HRP (FIG. 8)

fusion protein in which the extracellular domain of Cynomolgus monkey GITR is fused with the domain of mouse IgG1-Fc (Cynomolgus monkey), sequence (chain, as listed by the source limits assumed, form in doubt): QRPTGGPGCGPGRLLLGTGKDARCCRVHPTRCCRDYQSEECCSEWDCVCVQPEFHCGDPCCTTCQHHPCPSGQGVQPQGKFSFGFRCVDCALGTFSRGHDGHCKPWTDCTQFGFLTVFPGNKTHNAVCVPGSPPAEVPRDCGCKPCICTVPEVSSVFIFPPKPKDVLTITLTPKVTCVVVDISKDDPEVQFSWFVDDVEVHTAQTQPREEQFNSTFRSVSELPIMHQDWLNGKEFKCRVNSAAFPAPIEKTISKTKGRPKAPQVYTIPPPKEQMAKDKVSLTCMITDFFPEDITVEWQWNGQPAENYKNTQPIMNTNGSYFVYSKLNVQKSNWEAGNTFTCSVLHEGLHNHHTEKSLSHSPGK

B1: isolated antigen-binding protein C3E2 (antibody, human IgG1, kappa, V domains shown)
VH: QVQLQESGPGILQPSQTLSLTCSFSGFSLSTFGMGVGWIRQPSGKGLEWLVLILWNDIKYYNPALKSLLTVSKDTSNNQVFLKIASVDTADTATYYCARVDGYYGYFDVWGTGTTVTVSS
VL: DIVMTQSPLSLPVSLGDQASISCRSSQTIVHSNGNTYLEWYLQKPGQSPKLLIYKVSNRFSGVPDRFSGSGSGTDFTLKISRVEAEDLGVYYCFQGSHVPWTFGGGTKLEIKR
EC50 [1]: 0.0704 µg/mL | EC50 [2]: 0.0747 µg/mL

B2: isolated antigen-binding protein 3E2 1-2 (antibody, human IgG1, kappa, V domains shown)
VH: QVTLQESGPTLVKPTQTLTLTCTFSGFSLSTFGMGVGWIRQPPGKGLEWLVLILWNDIKYYNPALKSLLTVTKDTSKNQVVLTITNMDPVDTATYYCARVDGYYGYFDVWGQGTMVTVSS
VL: DIVMTQSPLSLPVTLGQPASISCRSSQTIVHSNGNTYLEWYLQRPGQSPKLLIYKVSNRFSGVPDRFSGSGSGTDFTLKISRVEAEDVGVYYCFQGSHVPWTFGGGTKVEIKR
EC50 [1]: 0.0517 µg/mL
